Experimental findings from IntAct's records for PubMed 23064147 are described below.

B1: Spindle assembly abnormal protein 5 (Caenorhabditis elegans), Q20010 (parent)
chain: MNNYDDLPCSIYFKKPTVQEFVDQPRVFEDSEVPAFQEVLQLPQERTKPPVPSTQPIVAAVEVAKKKSCLSAPKPRKEPPSHPALRQKTVAFGKTVNVSQTVEGTSRNSKKVLASTMSAQNTTTTEEQAAENWRDAMKTELQTIRTEIQEETARRQEELNAQNLVKMQELMSNFFQKITIPKQQAIEPVEKDKENFHESPRQSRQQKPASKIASAREVIKRDGVIPPEALTIIEQRLRSDPMFRQQIDNVLADAECDANRAAYSPPPPMSEVRYGSGVNPALMRETLTVERSIRYDNGLASIDSRQWTNERRDNRAPDSYRTYEPDQPCHSLYQKGQSISYYPSEAAGKTTARNNRTGYYVEDSSDHEEDVVVNKRGQNYHEQAVPETPAERERRIREKYARRK
partner: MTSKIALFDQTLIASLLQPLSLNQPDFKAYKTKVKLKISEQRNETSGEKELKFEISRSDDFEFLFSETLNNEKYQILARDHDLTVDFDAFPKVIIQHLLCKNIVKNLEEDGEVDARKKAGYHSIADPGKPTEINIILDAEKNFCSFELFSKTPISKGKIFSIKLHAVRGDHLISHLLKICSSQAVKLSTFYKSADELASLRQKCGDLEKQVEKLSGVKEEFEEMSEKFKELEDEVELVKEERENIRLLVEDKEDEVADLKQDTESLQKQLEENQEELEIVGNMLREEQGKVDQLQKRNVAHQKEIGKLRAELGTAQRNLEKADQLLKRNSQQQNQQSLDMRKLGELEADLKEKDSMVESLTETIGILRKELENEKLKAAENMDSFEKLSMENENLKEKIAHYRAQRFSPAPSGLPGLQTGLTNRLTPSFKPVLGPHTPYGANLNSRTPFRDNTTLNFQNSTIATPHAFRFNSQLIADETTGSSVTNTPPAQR
B2: Spindle assembly abnormal protein 6 (Caenorhabditis elegans), O62479 (parent)
chain: B1 partner
partner: B1 chain

The variants in one test derive from B1. The following applies: with sas6_caeel sas-6, O62479.
In the case of R397C, the “effect of a mutation on the interaction” value was “decreasing interaction”.

Variants of B1 are the subject of a further test. The following applies: with sas6_caeel sas-6, O62479. This is another data set of the same source.
Regarding R397C, the “effect of a mutation on the interaction” value is “disrupting interaction”.

The variants in a further test derive from B1. The following applies: with sas6_caeel sas-6, O62479. The source holds these as a separate data set.
In the case of Y400A, the “effect of a mutation on the interaction” value is reported as “decreasing interaction”.

In another test the parent is B1. The note with it: with sas6_caeel sas-6, O62479. This is another data set of the same source.
Consider Y400A, for which the “effect of a mutation on the interaction” value was “disrupting interaction”.

Variants of B1 are the subject of another test. The following applies: with sas6_caeel sas-6, O62479. This is another data set of the same source.
Regarding I396A, the “effect of a mutation on the interaction” value is listed as “decreasing interaction”.

In another test the parent is B1. The following applies: with sas6_caeel sas-6, O62479. The source holds these as a separate data set.
As for I396A, the “effect of a mutation on the interaction” value was “disrupting interaction”.

The variants in the next test derive from B1. The following applies: with sas6_caeel sas-6, O62479. This is another data set of the same source.
As for R403A, the “effect of a mutation on the interaction” value is recorded as “decreasing interaction”.

Variants of B1 are the subject of another test. The following applies: with sas6_caeel sas-6, O62479. The source holds these as a separate data set.
As for R403A, the “effect of a mutation on the interaction” value is “disrupting interaction”.

A further test covers variants of B2. The note with it: with sas5_caeel sas-5, Q20010.
As to E278A, the “effect of a mutation on the interaction” value is “decreasing interaction”.

Take E276A: the “effect of a mutation on the interaction” value is reported as “decreasing interaction”.

In the case of E275A, the “effect of a mutation on the interaction” value was “decreasing interaction”.

Variants of B2 are the subject of another test. The note with it: with sas5_caeel sas-5, Q20010. This is another data set of the same source.
As for E278A, the “effect of a mutation on the interaction” value is listed as “disrupting interaction”.

E276A: the “effect of a mutation on the interaction” value was “disrupting interaction”.

Turning to E275A, the “effect of a mutation on the interaction” value was “disrupting interaction”.

The variants in the next test derive from B2. The following applies: with sas5_caeel sas-5, Q20010. This is another data set of the same source.
For E287A, the “effect of a mutation on the interaction” value is “decreasing interaction”.

The variants in the next test derive from B2. The note with it: with sas5_caeel sas-5, Q20010. This is another data set of the same source.
As for M283A, the “effect of a mutation on the interaction” value is reported as “decreasing interaction”.

In the case of I279A, the “effect of a mutation on the interaction” value is listed as “decreasing interaction”.

Another test covers variants of B2. The note with it: with sas5_caeel sas-5, Q20010. This is another data set of the same source.
Regarding M283A, the “effect of a mutation on the interaction” value was “disrupting interaction”.

Consider I279A, for which the “effect of a mutation on the interaction” value was “disrupting interaction”.

In another test the parent is B2. The note with it: with sas5_caeel sas-5, Q20010. The source holds these as a separate data set.
As for E286A, the “effect of a mutation on the interaction” value was “decreasing interaction”.
